According to patent publication US20030068675, “Position dependent recognition of GNN nucleotide triplets by zinc fingers” (published 2003):

Columns and labels:
Assay in all cases: EMSA
Details in all cases: tags: MBP fusion
ZFP SBS#1379 = biological target: T1, ZFP SBS#1379 (synthetic)
T1 chain: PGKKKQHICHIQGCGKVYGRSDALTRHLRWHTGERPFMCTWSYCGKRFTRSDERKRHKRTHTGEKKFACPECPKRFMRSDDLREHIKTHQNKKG
How it was run: (§1)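 Purified ZFP was titrated against labeled double-stranded target (1 nM or lower, at least 10-fold below expected Kd) carrying the natural binding site with flanks. Binding buffer was 10 mM Tris pH 7.5, 100 mM KCl, 1 mM MgCl2, 0.1 mM ZnCl2, 5 mM DTT, 10% glycerol, 0.02% BSA, with equilibration for at least 45 min. Bound and free target were separated on a 10% polyacrylamide gel.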

ZFP SBS#1378 = biological target: T2, ZFP SBS#1378 (synthetic)
T2 chain: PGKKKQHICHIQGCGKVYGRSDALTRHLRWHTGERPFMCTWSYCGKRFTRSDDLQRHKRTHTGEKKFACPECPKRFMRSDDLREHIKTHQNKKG
How it was run: as §1

ZFP SBS#1375 = biological target: T3, ZFP SBS#1375 (synthetic)
T3 chain: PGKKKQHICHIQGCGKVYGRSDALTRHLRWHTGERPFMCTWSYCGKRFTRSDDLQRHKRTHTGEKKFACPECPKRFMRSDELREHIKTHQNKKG
How it was run: as §1

ZFP SBS#1377 = biological target: T4, ZFP SBS#1377 (synthetic, UniProt P08047)
T4 chain: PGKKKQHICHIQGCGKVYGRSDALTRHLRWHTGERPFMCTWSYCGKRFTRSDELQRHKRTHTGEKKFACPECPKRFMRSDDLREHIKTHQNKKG
How it was run: as §1

ZFP SBS#1376 = biological target: T5, ZFP SBS#1376 (synthetic)
T5 chain: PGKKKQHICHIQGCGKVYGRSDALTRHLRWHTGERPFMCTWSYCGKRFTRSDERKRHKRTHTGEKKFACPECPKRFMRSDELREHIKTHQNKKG
How it was run: as §1

ZFP SBS#1374 = biological target: T6, ZFP SBS#1374 (synthetic, UniProt P08047)
T6 chain: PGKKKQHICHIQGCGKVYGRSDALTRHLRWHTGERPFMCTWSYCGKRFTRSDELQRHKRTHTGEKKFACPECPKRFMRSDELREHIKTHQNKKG
How it was run: as §1

ZFP SBS#1381 = biological target: T7, ZFP SBS#1381 (synthetic)
T7 chain: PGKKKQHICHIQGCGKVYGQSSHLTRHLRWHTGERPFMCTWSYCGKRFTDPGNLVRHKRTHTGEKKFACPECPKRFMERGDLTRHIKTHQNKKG
How it was run: as §1

ZFP SBS#1382 = biological target: T8, ZFP SBS#1382 (synthetic)
T8 chain: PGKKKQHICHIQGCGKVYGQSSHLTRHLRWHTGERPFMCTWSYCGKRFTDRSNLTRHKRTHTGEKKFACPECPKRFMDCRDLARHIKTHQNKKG
How it was run: as §1

ZFP SBS#1380 = biological target: T9, ZFP SBS#1380 (synthetic)
T9 chain: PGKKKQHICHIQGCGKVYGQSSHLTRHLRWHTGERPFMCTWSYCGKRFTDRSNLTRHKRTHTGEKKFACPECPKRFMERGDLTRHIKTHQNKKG
How it was run: as §1

ZFP SBS#1383 = biological target: T10, ZFP SBS#1383 (synthetic)
T10 chain: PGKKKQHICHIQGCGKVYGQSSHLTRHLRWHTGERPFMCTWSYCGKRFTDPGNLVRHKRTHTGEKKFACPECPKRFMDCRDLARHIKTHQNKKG
How it was run: as §1

ZFP SBS#1384 = biological target: T11, ZFP SBS#1384 (synthetic, UniProt P08047)
T11 chain: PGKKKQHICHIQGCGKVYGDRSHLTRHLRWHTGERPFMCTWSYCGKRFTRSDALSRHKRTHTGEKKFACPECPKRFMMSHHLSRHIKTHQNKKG
How it was run: as §1

ZFP SBS#1386 = biological target: T12, ZFP SBS#1386 (synthetic)
T12 chain: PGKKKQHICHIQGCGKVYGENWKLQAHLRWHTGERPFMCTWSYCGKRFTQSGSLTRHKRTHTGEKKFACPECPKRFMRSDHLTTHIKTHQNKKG
How it was run: as §1

ZFP SBS#1385 = ZFP SBS#1385 (synthetic)
How it was run: as §1

ZFP SBS#1394 = ZFP SBS#1394 (synthetic, UniProt P08047)
How it was run: as §1

ZFP SBS#1393 = ZFP SBS#1393 (synthetic)
How it was run: as §1

ZFP SBS#1397 = ZFP SBS#1397 (synthetic)
How it was run: as §1

ZFP SBS#1396 = biological target: T13, ZFP SBS#1396 (synthetic)
T13 chain: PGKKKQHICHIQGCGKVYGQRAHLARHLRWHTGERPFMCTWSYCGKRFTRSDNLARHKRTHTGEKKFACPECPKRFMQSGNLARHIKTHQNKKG
How it was run: as §1

ZFP SBS#1395 = ZFP SBS#1395 (synthetic)
How it was run: as §1

ZFP SBS#1400 = biological target: T14, ZFP SBS#1400 (synthetic)
T14 chain: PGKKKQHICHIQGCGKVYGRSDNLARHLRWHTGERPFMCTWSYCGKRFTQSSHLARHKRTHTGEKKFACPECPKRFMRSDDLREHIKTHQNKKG
How it was run: as §1

ZFP SBS#1403 = ZFP SBS#1403 (synthetic)
How it was run: as §1

Chain of ZFP SBS#1385 (synthetic) (chain, as listed by the source): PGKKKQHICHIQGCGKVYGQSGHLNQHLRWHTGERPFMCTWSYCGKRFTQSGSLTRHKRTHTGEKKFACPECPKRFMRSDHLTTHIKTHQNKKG
Chain of ZFP SBS#1397 (synthetic) (chain, as listed by the source): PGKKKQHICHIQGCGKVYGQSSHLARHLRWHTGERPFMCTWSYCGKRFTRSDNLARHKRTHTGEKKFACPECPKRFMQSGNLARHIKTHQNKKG
Chain of ZFP SBS#1395 (synthetic) (chain, as listed by the source): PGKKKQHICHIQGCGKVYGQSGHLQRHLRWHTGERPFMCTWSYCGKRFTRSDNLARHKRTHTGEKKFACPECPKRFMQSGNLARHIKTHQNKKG
Chain of ZFP SBS#1394 (P08047 other isoform, or with tags, fused parts or gaps): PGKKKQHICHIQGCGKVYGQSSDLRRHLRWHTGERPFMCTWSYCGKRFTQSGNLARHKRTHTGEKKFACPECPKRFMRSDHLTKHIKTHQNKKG

B1: CCGGCGGTG (dsDNA)
DNA 1: CCGGCGGTG
DNA 2: CACCGCCGG
**Q.** With B1 as the binder, how does the Kd (ZFP SBS#1379) read?
**A.** 0.25 nM

**Q.** What about the Kd (ZFP SBS#1378) of the same binder?
**A.** 0.012 nM

**Q.** And the Kd (ZFP SBS#1375)?
**A.** 0.008 nM

**Q.** And the Kd (ZFP SBS#1377)?
**A.** 0.012 nM

**Q.** What about the Kd (ZFP SBS#1376) of the same binder?
**A.** 0.858 nM

**Q.** What about the Kd (ZFP SBS#1374) of the same binder?
**A.** 0.003 nM

B2: GCCGACGGT (dsDNA)
DNA 1: GCCGACGGT
DNA 2: ACCGTCGGC
**Q.** Which results are given for B2?
**A.** Kd (ZFP SBS#1381): 0.23 nM; Kd (ZFP SBS#1382): 3.1 nM; Kd (ZFP SBS#1380): 0.076 nM; Kd (ZFP SBS#1383): 1.74 nM

B3: GGTGTGGGC (dsDNA)
DNA 1: GGTGTGGGC
DNA 2: GCCCACACC
**Q.** Which Kd (ZFP SBS#1384) does the source give for B3 here?
**A.** 0.013 nM

B4: TGGGCAAGA (dsDNA)
DNA 1: TGGGCAAGA
DNA 2: TCTTGCCCA
**Q.** B4 was tested. Which Kd (ZFP SBS#1386) did it give?
**A.** 0.193 nM

**Q.** And the Kd (ZFP SBS#1385)?
**A.** 0.229 nM

B5: TGGGAAGCT (dsDNA)
DNA 1: TGGGAAGCT
DNA 2: AGCTTCCCA
**Q.** With B5 as the binder, how does the Kd (ZFP SBS#1394) read?
**A.** 0.04 nM

**Q.** And the Kd (ZFP SBS#1393)?
**A.** 0.1 nM

B6: GAAGAGGGA (dsDNA)
DNA 1: GAAGAGGGA
DNA 2: TCCCTCTTC
**Q.** B6 was tested. Which Kd (ZFP SBS#1397) did it give?
**A.** 0.14 nM

**Q.** What about the Kd (ZFP SBS#1396) of the same binder?
**A.** 0.107 nM

**Q.** And the Kd (ZFP SBS#1395)?
**A.** 0.025 nM

B7: CCGGGTGAG (dsDNA)
DNA 1: CCGGGTGAG
DNA 2: CTCACCCGG
**Q.** With B7 as the binder, how does the Kd (ZFP SBS#1400) read?
**A.** 0.371 nM

B8: ATGGCAATG (dsDNA)
DNA 1: ATGGCAATG
DNA 2: CATTGCCAT
**Q.** How did the Kd (ZFP SBS#1403) turn out when B8 was run?
**A.** 0.07 nM
